Test results: article PMC9016638 (bioRxiv, 2022)
No end group written: not given here. *: point of attachment. Biotin = O=C1N[C@H]2[C@H](CS[C@H]2CCCCC(=O)*)N1

Assays:
Test in all cases: […]
SARS-CoV-2 S2 peptide 42 = target: T1, SARS-CoV-2 S2 peptide 42 (SARS-CoV-2 Wuhan-Hu-1, UniProt P0DTC2)
T1 chain: Biotin-PSKPSKRSFIEDLLF

SARS-CoV-2 S2 peptide 43 = target: T2, SARS-CoV-2 S2 peptide 43 (SARS-CoV-2 Wuhan-Hu-1, UniProt P0DTC2)
T2 chain: Biotin-PSKRSFIEDLLFNKV

SARS-CoV-2 S2 peptide 44 = target: T3, SARS-CoV-2 S2 peptide 44 (SARS-CoV-2 Wuhan-Hu-1, UniProt P0DTC2)
T3 chain: Biotin-RSFIEDLLFNKVTLA

Measured: binding result

B1: COV44-79 (antibody, V domains shown)
VH: QVQLVESGGGVVQPGRSLRLSCAASGLTFSGYAMHWVRQAPGKGLEWVAVISRDARNKYYADSVKGRFTISRDNSKKTVYLEMNSLRVEDTAVYYCAILIIPGITEPGSPDALDIWGQGTMVSVSS
VL: DIQMTQSPSSMSASVGDRVTITCRASQDISKWLAWYQQRPGKAPKLLIYAASSLQSGVPSRFSGSGSGTDFTLTISSLQPEDFATYYCQQASSFPWSITFGQGTRLEIR
binds: all assays above

B2: COV44-62 (antibody, V domains shown)
VH: QMQLMQSGAEVKKPGASVTVSCKASGDTFSDYRIHWVRQAPGQGLEWMGRMNPKSGDTNFAQKFQGRVTMTRDMSINTAYMTLSGLTFDDTALYYCASLLIVGGFDPLDDFEVWGQGTMVTISS
VL: QSALTQPPSASGSPGQSVTISCSGTSSDVGGYNFVSWYQHHPGKAPKILIYEVTKRPSGVPDRFSGSKSGNTASLTVSGLQAEDEADYYCSSYGGTNNLLFGGGTKLTVL
binds: all assays above
